Experimental findings from patent publication US20090053725 (United States as represented by Secretary of the Air Force, published 2009) are described below.

Data set [1] addresses Ovalbumin (UniProt P01012 P01012:2-386). Put plainly: control protein, no fluorescence increase; same conditions; Example 1 likewise no increase. The conditions noted are these: tags: Sigma-Aldrich; immobilized on maleic anhydride plate; label: Birch Yellow T1 Evitag quantum dot on plus strand; BHQ2 quencher on negative strand; partial duplex, 3' 19 nt of the aptamer paired, 5' single-stranded overhang.

Data set [2] has as its target Shiga toxin (UniProt Q9FBI2;Q7BQ98 Q9FBI2:23-315,Q7BQ98:21-89).

Sequence of Ovalbumin (P01012 2-386, one chain of several): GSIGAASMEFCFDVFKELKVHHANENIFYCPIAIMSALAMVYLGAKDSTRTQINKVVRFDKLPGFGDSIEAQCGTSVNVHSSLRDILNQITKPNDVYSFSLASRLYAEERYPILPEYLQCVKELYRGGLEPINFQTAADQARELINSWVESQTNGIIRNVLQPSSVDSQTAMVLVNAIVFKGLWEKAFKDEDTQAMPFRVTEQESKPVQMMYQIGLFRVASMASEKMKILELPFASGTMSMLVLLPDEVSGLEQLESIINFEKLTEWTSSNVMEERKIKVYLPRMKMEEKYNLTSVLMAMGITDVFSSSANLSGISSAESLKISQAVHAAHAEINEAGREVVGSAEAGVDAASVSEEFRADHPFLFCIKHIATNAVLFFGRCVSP
Sequence of Shiga toxin (Q9FBI2 23-315, chain 1 of 2): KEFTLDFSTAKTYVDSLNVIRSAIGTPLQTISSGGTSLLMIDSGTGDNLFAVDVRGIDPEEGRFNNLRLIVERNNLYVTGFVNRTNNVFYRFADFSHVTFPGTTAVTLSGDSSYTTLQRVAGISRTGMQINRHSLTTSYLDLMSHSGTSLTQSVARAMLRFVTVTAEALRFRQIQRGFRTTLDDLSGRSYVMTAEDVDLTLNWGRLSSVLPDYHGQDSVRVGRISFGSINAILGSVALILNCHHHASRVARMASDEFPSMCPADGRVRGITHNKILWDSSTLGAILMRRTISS
Sequence of Shiga toxin (Q7BQ98 21-89, chain 2 of 2): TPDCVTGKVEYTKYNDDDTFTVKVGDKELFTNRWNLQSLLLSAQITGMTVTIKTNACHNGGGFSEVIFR

B1: STJ-9 annealed quenched complex (Plus STJ-9 / Negative STJ-9) (dsDNA)
DNA 1: GGTAACTAGCATTCATTTCCCACACCCGTCCCGTCCATAT
DNA 2: ATATGGACGGGACGGGTGT
modifications: 3' amine on plus strand; 5' BHQ2 on negative strand
As to B1, the binding result in data set [1] is on record as “no binding”.

B2: Plus STJ-9 (ssDNA)
DNA: GGTAACTAGCATTCATTTCCCACACCCGTCCCGTCCATAT
Take B2: the binding result in data set [2] is “binds”.
